In the DeepSol protein solubility set:

Assay: soluble on expression in E. coli; label from the status in PepcDB or PDB records
In the case of “MARHKCQDCGKTFDLKRYLTKHELRMHKNVVKSKNDRSASDPLKCSMCDKVFPRLSHLQRHQMTHLNVRNYSCTFCEEKFVQKSHLTRHVSRKHSNAPGVEVDWTACDKCGQLFKTTYEMRIHRQTYHELHKCKQCQEVIEAGSDGLRKHHMQCRKYSNVCDECGASFSRPADLVSHETSCLKKFAFVCKPCDSYFRQRVQLDRHIKKAHFHPTKCSKCEQISDTPVQNSRHSLECVKVIICGYCSLKNPDKNHVATVHWHRLKRAVSKSVTIRHKLKDAPIADKDVPSSSGQSSLEEEILDDSEDDLEDTGEGLSNREQFKNRDIKRENNLEEVKSSTDNRDEEDSLFNFPDTSTSQLDFCSTAFTEDDSFPGDYVTLSICPKNTDLSFDLRDRLPPELSELFPELEATSIVLLNKSIRCRMTVRVPVCIPKSSTQEAEMRKWLDMTVVLKDD”, the “soluble on expression in E. coli” value was “not soluble”. In the case of “MRDWVIPPISCPENEKGEFPKNLVQIKSNRDKETKVFYSITGQGADKPPVGVFIIERETGWLKVTQPLDREAIAKYILYSHAVSSNGEAVEDPMEIVITVTDQNDNRPEFTQEVFEGSVAEGAVPGTSVMKVSATDADDDVNTYNAAIAYTIVSQDPELPHKNMFTVNRDTGVISVLTSGLDRESYPTYTLVVQAADLQGEGLSTTAKAVITVKDINDNAPVFNPS”, the “soluble on expression in E. coli” value was “soluble”. For “MSLKPLIKIETERTSLIYQVADNGRLYQKYLGKKLNHDSDIQYLPQGTEAYLTHGMEDYFEPAIHIRHNDNNSSLLLKYVDHSSNAIGNGVNETVITLKDDKYPVTVKLHYVAYGKENIIRTFTEISHEEKKPVILCKYASSMLHLNSSKYFLTEFSGDWAHEANVTERELAFGKKVIDTKLGARANMFVSPFFQLALDNPSQENAGEVLVGTIGWTGNFRFTFEVDNKNELRIISGINPYDSEYSLPAREVFRTPDFYFTYSTQGKGEASRNFHDWARNHQVKNGNDTRMTLLNNWESTYFDFDENKLIGLMDEATKLGVDMFLLDDGWFANKYPRSSDHQGLGDWEETADKLPNGVGRLVEEAQKKGIKFGIWIEPEMVNPKSELYEKHKDWVIHLPNRDEYYFRNQMVLDLSNPKVQDHVFGVVDNLMTKYPGIAFFKWDCNSPITNIYSVYLKDKQSHLYVDYVRGLYKVLDRIKAKYPNLPMMLCAGGGGRSDYEALKYFTEFWPSDNTDPIERLFIQWGYSQIFPSKTLCAHVTTWNRGTSIKFRTDVAMMCKLGFDIKLEDMNQNEHLYCDQAVKNYNRLKPVILEGDLYRLVSPYGSNHTSSMFVGKDKKTAAVFAFDIHPRYAEKTLPVRLQGLNADKKYRVKEINMMPGSGSSLKGNNQVFSGEYLMNVGLDLFTTQQLNSRLIEITEEGHHHHHH”, the “soluble on expression in E. coli” value was “soluble”. In the case of “MGTVMDVLKGDNRFSMLVAAIQSAGLTETLNREGVYTVFAPTNEAFRALPPRERSRLLGDAKELANILKYHIGDEILVSGGIGALVRLKSLQGDKLEVSLKNNVVSVNKEPVAEPDIMATNGVVHVITNVLQP”, the “soluble on expression in E. coli” value was “soluble”. With “MGSDKIHHHHHHMTKNHKISVDQLQVGTHISLPVSWKDHPFLFSSFKIKDAAQIELIRHLGITEVFFNPEKSDTQPLALDAIQGDSIDLDDMVDASDTDEMMLLKNEMEVKKQDSIDKQQQMRRSINKTEKQFDRSVAMMRSVVSKLGSRPLNAVNDAKELIHNLTDLLLNSDNLVLHLMGDAKPEEGIYHHSLNVSVLCMLLGKGLGWSREEIELIGIGALFHDVGKLKIPSNILNKRTPLSVPEVNFIKQHPLMSINFLKLADNFPAAAEPLIANHHEFLDGSGSPQGLKADKLDNLSQLIAVVNEYDNLCNGNMQTKGKTPFAALSFLYKNYTKKLNKEYVGRMIKTLGIYPPGCIIELSSGQFGLVMSVNLKNILFPRIMVYDPQVPKDQAPIIDLEQEGIKIVRCLPPAALPENIFKYLNPREKVSYGLGSES” the “soluble on expression in E. coli” value was “not soluble”. In the case of “MAHHHHHHMCTTNLENLVVDSVTRTGNNNASNTFLGDVLLASNKESQNITQYHPGVSSKDQPDVCGDVRYSFADIADIIRGTDVWSKQSQQMLLQGYLEQTFGKIKDKFKGTEKYDSDSHHPQIL”, the “soluble on expression in E. coli” value was “not soluble”. For “MGSDKIHHHHHHMSITPHRLPVAPVIVREAYLSLLRKGWRPGDRDLKTPRNVKIETGIIEKAEGSALVKLGKTQVIAGVKAGVGAPFKDTPNQGVLTVHAEFVPLASPVFEPGPPDENAIELARVVDRSLREVGAVDLESLVIRPGEKVWVLWVDLYIIDHDGNLFDASMLATMAVLLTARLPRYEESETGEIIISKEGEGEELKVKTRVVTVTTAKIDRYIVVDPNIEEEAVSDVRLVTAVDENGRIVGLQKTGMGSLTEADIETMIGYSLEASKVYFKALEEAIKP”, the “soluble on expression in E. coli” value was “not soluble”. For “MGSDKIHHHHHHMPRNLPPLYALRAFEAAARHTSFTRAAEELSITQSAVSRHIRTLEEHFACRLFQRNGRNLQLTESARTLLPGVRDGFLALERACSTLQTDEGVLRMKAPSTLTMRWLLARLSRFRHLQVGNEVQLTSAWMDIDAVDFTREPFDCAILLSQGHFPSDWEATLLFAELLIPVGAPTLSQDPPWDVERLAKAELLHPTPDRRDWRTWLNRMGLADQVSLKGGQVFDTLELGMIAAARGYGVSMGDLLMVAEDLAQSRLSLPWRTAVFSGENYYLVWPRTRPGAERLRRLSDFLQAEVKAMKLPLVEVLR”, the “soluble on expression in E. coli” value was “not soluble”. In the case of “MQDTLPIHFAPLQGYTEAIYRNAHDAFFGGVDTYYTPFVRLEKGNFRRRDVRGIEPENNGVPHLIPQLIASSAEKAEVILSLFIEKGYQEVDINLGCPFPLLAKRHNGSGILPYPEEVKALLSIVTRYPQISFSVKMRLGWEQPDECLALAPILNDLPLRQITMHPRLGKQGYKGEVDLQGFSAFREVCQLPLVYNGDIHNLEDIQRISTQFPSLAGIMIGRGLLANPALALEYKENRTLAPDEMRDRLKSMHKSVYNNYDVLLEGGEGQLLTKMKTFWEYLAPQTDRKVLKAIHKSTNISKYYQAVSAFFNQR”, the “soluble on expression in E. coli” value was “not soluble”. With “MGSDKIHHHHHHMSNAEWLNALETPFLLIDEFRFQRNIDRLYQRTKNLGSQVRPHLKTLRSIEAGRYLLKDSASPATVSTLAEAEAFAGAGYTNLLYAVGIAPHKLPRIANLIHKGVNLHILLDSVEQARAVTDYALANNVTFSVFIEIDCDGHRGGIPPESDALLELAQQIDGNGATLTGLLAHAGESYACRTDEAIRAAARAECAAINIAGRRVRALGIACPVLSVGATPTAHFAEDLTGITEVRAGVFTTFDLVMKNVGVCSLDDIALSVVSTVIGHNREKGWVFIDAGWMALSRDRGTASQAKDYGYGLVCDLHGSPYHDLCVTVTNQEHGIIALPTDSGFSVDNFPVGTRLRILPNHACATAAMHQHYQVLKSHRHEQETWQRITGW” the “soluble on expression in E. coli” value was “not soluble”. In the case of “MGSDKIHHHHHHMRSITTNYSDDGYNFAFLDEQTKRMVRRTLLKALSIPGYQVPFGGREMPLASGWGTGGIQITASVLGPNDRLKVIDQGADDTTNAVSIRRFFQTVADISVTESTEEATIIQTRHRVPEAPLTEGQILVYQVPEPEPLRKLIPRESETRKMHAYAEYGAMQVTLYENIARFGRIAKTYDYPAMINGRFLMSPSPIPKFDNPKMANNPAIQFWGAGREKRIYAVPPYTSVRSLDFDDHPFEVQTWQGCCALCGSTVSYLDEVITDDKGSRMFVCSDTDFCNTRQAQAAAQPNSAGGES”, the “soluble on expression in E. coli” value was “not soluble”. For “MKKLFNQVLVAAGVLALLAGCASEEENVIMAPLPIVKSEFTPKTLWSASVGDGVGHYFSKLAPDYAYDKVFVASRDGVVKALDPQNGKVIWTTDLEIEGSARLSGGITAAFGKLFIGSENGVVNALDAETGEPLWASAIEGEVLAAPAADNNIVIVNTSRGALIALNQEDGAQKWTISTEVPNLTLRGDSRPTAVAGGVFWGTPSGRLAAAIAERGQLIWQQPVGQPKGATEIDRLVDVDASPLVIGGTLFTVGFNGQLIAIDLRSGQPIWKRNYSSATDMATDGSRLYLVTDKDHLVAVDTRSGTELWSNTQLEHRLLTAPKMIDDYLVVGDAEGYLHWIDRNSGEFIAQQLVNDSGFAVGPLALNDGYVIVTRNGQIKKLTIQQ”, the “soluble on expression in E. coli” value was “not soluble”. In the case of “SLVSSMHDLLLRNVRPMAGEACDIMIRNGKITGFGKFDAEPGLPVEDGKGAIAVPGLIDAHTHLDKTTWGMPWHVNNRAAILRERIDFERENRVQIGIDPHRQSMRHAIGLAANGGTHIRSHVDIDPTHGLKLVEGIWETREKLDGIIDIEVVAFPQSGVMVMPGTVELLDEALKQGCEVLGGIDPCGIDRDPKGQLDILFQLATKHGVPIDIHLHEAADLGAFTMELIFERIRANGMQGNVAISHAFALGMNDYLRVGRLIDEIARLDVAILTTGAPSASVPSIMRLKEAGVRVGGGCDGIRDTWGPWGQPDMLDRAKIIGMKNGLRSDVELAHVLHVVSRGGADVMGIEDYGMEIGCAADFTLLTGETLAHAVVDITPRPLVVKGGRVTARNGKAIVEAP”, the “soluble on expression in E. coli” value was “soluble”. In the case of “MKTPRLLQYLAYPQKITGPIIEAELRDVAIGELCEIRRGWHQKQVVARAQVVGLQRERTVLSLIGNAQGLSRDVVLYPTGRALSAWVGYSVLGAVLDPTGKIVERFTPEVAPISEERVIDVAPPSYASRVGVREPLITGVRAIDGLLTCGVGQRMGIFASAGCGKTMLMHMLIEQTEADVFVIGLIGERGREVTEFVDMLRASHKKEKCVLVFATSDFPSVDRCNAAQLATTVAEYFRDQGKRVVLFIDSMTRYARALRDVALASGERPARRGYPASVFDNLPRLLERPGATSEGSITAFYTVLLESEEEADPMADEIRSILDGHLYLSRKLAGQGHYPAIDVLKSVSRVFGQVTTPTHAEQASAVRKLMTRLEELQLFIDLGEYRPGENIDNDRAMQMRDSLKAWLCQPVAQYSSFDDTLSGMNAFADQN”, the “soluble on expression in E. coli” value was “not soluble”. In the case of “PTARRDIRFAWSGDTAGQGWGIDDEGMRTYATMAQHQPDFFIHSGDTIYADGPMKDEVEKDGAVIWKNTTLIDEKRKVAETLAEFRGQWKYNLMDEHVQAMNALCPTFFQWDDHEVVNNWSDAKDLSADDRYTEKSVHVLQSRAARAFHEMTPLRITPAEPGRVYRKISYGPMLDVFFLDLRSYRGPNGASMEDEITDQSRILGAEQLAWIKRELAASTATWKVIASDMPIGLIVWDNWKEKAGAEAISNGDHGPAKGRELEIADLLRFIKSAGVRNTVWFTADVHYTAAHHYSPERAQFQDFDPFWEFVSGPLHAGTFGPNDLDRTFGPEVKFVKAPTPEQGVNLPPSMGLQFFGLVDIDAASQQMKVRLMDRGNTELWSVTLDPVLSAI”, the “soluble on expression in E. coli” value was “not soluble”. For “MAIFSRTKRVTDPLDDDAKARILSSHSYILDQDSPRLCELVHGFLEDGPEESFYDSDPDLSETSSAEHSGEASVEIVRMAVSFSDSDPYRNLLLAHVLRAVEVYSGFRSRNKTVFRDKVASFLRELGHDAAVCVSKWTSSSKLIAGSYHFIDVVHKPSDNDQKAVRYLVDLDFASEFEIARPTREYTRGLQLLPNVFVGNEENLRTIVRESCDAAKRSMKSRGLSLPPWRRSSYLQHKWFGPYKRKVGSSLGVKPLNSDAVSCRSLGFDDGAVNTRLFIRA”, the “soluble on expression in E. coli” value was “soluble”. In the case of “MSLATLKDVALHAGVSVTTVSNFINNKKKLKDDTRHNILEAIQATGYRHNALAASLKKSSASLRSIGIISIVDQNPFFSELFFKLENECFKQDFTVISCFRHKDKEDLHTYINLMSGRVDGIILISLKRDKIDNVIKHIHAVPVVAIAFDIGDVMSLCGGTEFNLHNETGGYIAGRFLLSKGHKKIACVTGPKALKTTVNRIAGLKKALADFNLPEDSVDFIEGNYTYQSGVDAMYQLFSSVALPTAIICHNDLMAIGVQNAANELGLKIPRELSVIGYDDIEMSKLSFPSLTTVRIPLDDIACQALEGLSMKMATPGSKAIISATPSLVVRGSVSKGIITITTDPNSSSVDKLAAALEHHHHHH”, the “soluble on expression in E. coli” value was “soluble”. With “MSKRLPPLNALRVFDAAARHLSFTRAAEELFVTQAAVSHQIKSLEDFLGLKLFRRRNRSLLLTEEGQSYFLDIKEIFSQLTEATRKLQARSAKGALTVSLLPSFAIHWLVPRLSSFNSAYPGIDVRIQAVDRQEDKLADDVDVAIFYGRGNWPGLRVEKLYAEYLLPVCSPLLLTGEKPLKTPEDLAKHTLLHDASRRDWQTYTRQLGLNHINVQQGPIFSHSAMVLQAAIHGQGVALANNVMAQSEIEAGRLVCPFNDVLVSKNAFYLVCHDSQAELGKIAAFRQWILAKAAAEQEKFRFRYEQ” the “soluble on expression in E. coli” value was “soluble”.
